Our source for the Kd values is PMC10284121 (2023).

The labels stand for the following.
B1: 14-3-3γ (protein)
chain: VDREQLVQKARLAEQAERYDDMAAAMKNVTELNEPLSNEERNLLSVAYKNVVGARRSSWRVISSIEQKTSADGNEKKIEMVRAYREKIEKELEAVCQDVLSLLDNYLIKNCSETQYESKVFYLKMKGDYYRYLAEVATGEKRATVVESSEKAYSEAHEISKEHMQPTHPIRLGLALNYSVFYYEIQNAPEQACHLAKTAFDDAIAELDTLNEDSYKDSTLIMQLLRDNLTLWTSDQQDDDGGEGNN
modifications: phosphopeptide, fluorescein label, MG1 present (2-3 h)
B2: 14-3-3γ (protein)
chain: B1 chain
modifications: phosphopeptide, fluorescein label, MG1 present, pH 6.5
B3: 14-3-3γ (protein)
chain: B1 chain
modifications: phosphopeptide, fluorescein label, MG1 present, pH 8.0
B4: 14-3-3γ (protein)
chain: B1 chain
modifications: phosphopeptide, fluorescein label, MG1 present (10 min)
B5: 14-3-3γ (protein)
chain: B1 chain
modifications: phosphopeptide, fluorescein label
B6: 14-3-3γ (protein)
chain: B1 chain
modifications: phosphopeptide, fluorescein label, fusicoccin-A present

As usually defined, the Kd is the concentration at which binding is half-saturated. A low value points to higher affinity.

Pin1 phosphopeptide (fluorescein-labelled), sequence (Q13526 whole entry): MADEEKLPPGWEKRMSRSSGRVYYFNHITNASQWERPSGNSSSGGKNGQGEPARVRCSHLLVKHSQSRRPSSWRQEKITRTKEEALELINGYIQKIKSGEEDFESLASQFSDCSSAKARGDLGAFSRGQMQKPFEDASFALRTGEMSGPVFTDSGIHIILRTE

This experiment addresses Pin1 phosphopeptide (fluorescein-labelled) (Homo sapiens, UniProt Q13526). In words: fluorescence anisotropy. (In general: Polarisation of emitted light reports the rotation of a fluorescent probe.)
B1 registered a Kd of 1.5 µM.
As for B2, the figure is approximately 5.2 µM; as for B3, approximately 0.6 µM.
As for B4, the figure is 5.4 µM; as for B5, 30 µM.
As for B6, the figure is 2.9 µM.
